The record followed here is patent US20260000740A1, “USE OF A L-ASPARAGINASE IN COMBINATION WITH A FERROPTOSIS INDUCER FOR THE TREATMENT OF EXTRANODAL NATURAL KILLER/T-CELL LYMPHOMA” (Institut National de la Santé et de la Recherche Médicale, priority 2022, published 2026).

In one experiment the test system is KHYG-1 cells. The experiment in a line: Cell viability measurement by flow cytometry (Annexin V/PI). The experiment is classed as cell-based, human. Conditions: for Effect of Gln addition on cell death: Gln addition combined to treatment alone; for Asparaginase sensitivity: KHYG1 cell line. The method, then:
KHYG-1 cells were seeded into flat wells of a 96-wells plate (Falcon) at a final concentration of 0.1 10^6 cells/well. APR-246 was dispensed at a final concentration of 20 uM and Asparaginases were dispensed at a final concentration range from 0.1 to 1 UI/mL. Plates were incubated at 37° C. and 5% CO2 for 72 hours in a humidity chamber. Cell viability was determined by flow cytometry using Annexin V (APC Annexin V, BD Biosciences, ref: 550474, 1:100 dilution)/Propidium Iodide (PI) (Propidium Iodide, Invitrogen, ref: BMS500FI-100, 1:20 dilution) staining. After 20 min incubation at 4° C. away from light, flow cytometry was performed using BD Fortessa cytometer (with HTS device for plate reading).
Flow cytometry data were analysed using FlowJo software and GraphPad-Prism 9. R software and Rstudio interface (version 1.4.1106) were used for synergy score calculation. Calculations were based on the Loewe model.

The subject of a further experiment is GSH. The experiment in a line: Quantification of GSH levels and GSH/GSSG ratio in tumor cells (metabolomics, specific quantification). Format: cell-based, human. As to conditions: for GSH / GSH/GSSG ratio: metabolomic analysis in tumor cells after one day treatment, single agent. From the text:
(§1) Then, we wanted to uncover the metabolic changes induced by ASNase resistance.

In a further experiment the test system is lipid peroxidation. The experiment in a line: Lipid peroxidation in KHYG1 cell line. The experiment is classed as cell-based, human. As to conditions: added to RSL3 combined with Erwinase; FIG. 2B.
A further experiment deals with MEC-04 cell line. The experiment in a line: Asparaginase sensitivity of cell lines. The experiment is classed as cell-based, human.
The next experiment concerns YT1 cell line. Briefly: Asparaginase sensitivity of cell lines. Format: cell-based, human.
The test system of experiment [1] is NALM6 human acute lymphoblastic leukemia cell line. Briefly: Asparaginase sensitivity of cell lines. The experiment is classed as cell-based.
The test system of the next experiment is mitochondrial ROS. The experiment in a line: Quantification of mitochondrial ROS levels in tumor cells. Format: cell-based, human. As to conditions: Erwinase compared to Kidrolase; data not shown.
Description: as §1

The next experiment relates to extracellular Gln. Briefly: Extracellular glutamine levels in supernatant of cultured cells. The experiment is classed as cell-based, human. As to conditions: cells cultured with each drug; compared to Kidrolase; data not shown. From the text: Glutamine (Gln) intake from extracellular compartment is converted in Glutamate (Glu) by glutaminase (GLS) and participates to cancer cells protection from oxidative stress through solute carrier family 7-member 11 (SLC7A11) expression. SLC7A11 encodes the cystine/Glu antiporter xCT which imports cysteine into the cell in exchange for Glu […].

Consider `COCC1(CO)C(=O)C2CCN1CC2` (stereo not shown) [APR-246, 2-(hydroxymethyl)-2-(methoxymethyl)-1-azabicyclo[2.2.2]octan-3-one, reference compound], for which the “Effect of Gln addition on cell death” value in the experiment on KHYG-1 cells (data not shown) is given as “no effect”.
Regarding `CCOC(=O)c1ccc(NC2CCCCC2)c(N)c1` [ferrostatin-1, reference compound], the “Effect of co-treatment with ferrostatin-1 on the decrease in cell viability” value with KHYG-1 cells (RSL3+Erwinase-treated cells, data not shown) is on record as “abrogated”. For the same molecule, the “Effect of ferrostatin-1 addition on GSH decrease” value with GSH (added to RSL3 combined with Erwinase, FIG. 2B) was “reversed”. Moreover, the “Effect of ferrostatin-1 addition on lipid peroxidation accumulation” value in the experiment on lipid peroxidation is listed as “reversed”.

B1: Kidrolase: L-Asparaginase from E. Coli (Kidrolase®) (protein, UniProt P00805 23-348, looked up)
L-asparaginase 2: LPNITILATGGTIAGGGDSATKSNYTVGKVGVENLVNAVPQLKDIANVKGEQVVNIGSQDMNDNVWLTLAKKINTDCDKTDGFVITHGTDTMEETAYFLDLTVKCDKPVVMVGAMRPSTSMSADGPFNLYNAVVTAADKASANRGVLVVMNDTVLDGRDVTKTNTTDVATFKSVNYGPLGYIHNGKIDYQRTPARKHTSDTPFDVSKLNELPKVGIVYNYANASDLPAKALVDAGYDGIVSAGVGNGNLYKSVFDTLATAAKTGTAVVRSSRVPTGATTQDAEVDDAKYGFVASGTLNPQKARVLLQLALTQTKDPQQIQQIFNQY
As to B1, the Asparaginase sensitivity result with MEC-04 cell line is “high sensitivity”; with YT1 cell line it was “high sensitivity”; in experiment [1], “resistant”; in the experiment with KHYG-1 cells it was “resistant”. Also, the “Effect of Gln addition on cell death” value with KHYG-1 cells (data not shown) was “no effect”. The GSH result in the experiment with GSH (data not shown) is “decrease”. Moreover, the GSH/GSSG ratio result in the experiment on GSH (data not shown) is “decrease”.

B2: Erwinase: L-ASP protein from Erwinia chrysanthemi, named crisantaspase, marketed as Erwinase®; SEQ ID NO:1 (protein, listed as Erwinia chrysanthemi)
chain: ADKLPNIVILATGGTIAGSAATGTQTTGYKAGALGVDTLINAVPEVKKLANVKGEQFSNMASENMTGDVVLKLSQRVNELLARDDVDGVVITHGTDTVEESAYFLHLTVKSDKPVVFVAAMRPATAISADGPMNLLEAVRVAGDKQSRGRGVMVVLNDRIGSARYITKTNASTLDTFKANEEGYLGVIIGNRIYYQNRIDKLHTTRSVFDVRGLTSLPKVDILYGYQDDPEYLYDAAIQHGVKGIVYAGMGAGSVSVRGIAGMRKAMEKGVVVIRSTRTGNGIVPPDEELPGLVSDSLNPAHARILLMLALTRTSDPKVIQEYFHTY
On to B2, for which the Asparaginase sensitivity entry in the experiment on MEC-04 cell line was “high sensitivity”; in the experiment with YT1 cell line it was “high sensitivity”; in experiment [1], “resistant”; in the experiment with KHYG-1 cells, “resistant”. For the same molecule, the “Effect of Gln addition on cell death” value in the experiment on KHYG-1 cells (data not shown) is given as “partially prevents cell death”. Besides, the GSH levels result in the experiment on GSH (Erwinase compared to Kidrolase, data not shown) is reported as “GSH decrease”. The GSH result with GSH (data not shown) is “more pronounced”. The GSH/GSSG ratio entry in the experiment on GSH (data not shown) is listed as “more pronounced”. The “Effect of extracellular Gln addition on intracellular GSH levels” value in the experiment with GSH (upon Erwinase treatment, data not shown) is “significantly rescues”. In addition, the ROS levels entry in the experiment on mitochondrial ROS is “higher ROS levels”. Also, the “Gln extracellular levels in the supernatant” value in the experiment on extracellular Gln is on record as “deeper extracellular Gln depletion”.
